B1: Androgen receptor (Homo sapiens), P10275 (parent)
chain: MEVQLGLGRVYPRPPSKTYRGAFQNLFQSVREVIQNPGPRHPEAASAAPPGASLLLLQQQQQQQQQQQQQQQQQQQQQQQETSPRQQQQQQGEDGSPQAHRRGPTGYLVLDEEQQPSQPQSALECHPERGCVPEPGAAVAASKGLPQQLPAPPDEDDSAAPSTLSLLGPTFPGLSSCSADLKDILSEASTMQLLQQQQQEAVSEGSSSGRAREASGAPTSSKDNYLGGTSTISDNAKELCKAVSVSMGLGVEALEHLSPGEQLRGDCMYAPLLGVPPAVRPTPCAPLAECKGSLLDDSAGKSTEDTAEYSPFKGGYTKGLEGESLGCSGSAAAGSSGTLELPSTLSLYKSGALDEAAAYQSRDYYNFPLALAGPPPPPPPPHPHARIKLENPLDYGSAWAAAAAQCRYGDLASLHGAGAAGPGSGSPSAAASSSWHTLFTAEEGQLYGPCGGGGGGGGGGGGGGGGGGGGGGGEAGAVAPYGYTRPPQGLAGQESDFTAPDVWYPGGMVSRVPYPSPTCVKSEMGPWMDSYSGPYGDMRLETARDHVLPIDYYFPPQKTCLICGDEASGCHYGALTCGSCKVFFKRAAEGKQKYLCASRNDCTIDKFRRKNCPSCRLRKCYEAGMTLGARKLKKLGNLKLQEEGEASSTTSPTEETTQKLTVSHIEGYECQPIFLNVLEAIEPGVVCAGHDNNQPDSFAALLSSLNELGERQLVHVVKWAKALPGFRNLHVDDQMAVIQYSWMGLMVFAMGWRSFTNVNSRMLYFAPDLVFNEYRMHKSRMYSQCVRMRHLSQEFGWLQITPQEFLCMKALLLFSIIPVDGLKNQKFFDELRMNYIKELDRIIACKRKNPTSCSRRFYQLTKLLDSVQPIARELHQFTFDLLIKSHMVSVDFPEMMAEIISVQVPKILSGKVKPIYFHTQ

Variants of: B1
Details: with daxx_human DAXX

Row | effect of a mutation on the interaction | Variant
1 | decreasing interaction strength | K388R;K521R

— IntAct's records for PubMed 15572661
